Test results reported in IntAct's records for PubMed 25225338.

Molecular target: mare1_human MAPRE1 (UniProt Q15691)
Sequence (Q15691 whole entry): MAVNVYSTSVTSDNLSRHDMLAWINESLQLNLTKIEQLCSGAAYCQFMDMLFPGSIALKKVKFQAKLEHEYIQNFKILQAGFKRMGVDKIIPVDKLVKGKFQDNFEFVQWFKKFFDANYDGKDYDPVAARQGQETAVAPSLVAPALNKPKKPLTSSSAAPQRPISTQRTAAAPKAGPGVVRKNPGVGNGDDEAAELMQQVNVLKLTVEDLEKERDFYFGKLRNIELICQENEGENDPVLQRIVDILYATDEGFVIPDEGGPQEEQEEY

“Desmoplakin (Homo sapiens), P15924-2 N458Y” was tested, and the “effect of a mutation on the interaction” value was “decreasing interaction strength”.
With “Desmoplakin (Homo sapiens), P15924-2 I533T” the “effect of a mutation on the interaction” value was “decreasing interaction strength”.
